Consider one protein from article doi:10.1101/2022.06.30.498311 (bioRxiv, 2022).

The data set deals with the molecule itself. Description: crystal structure.

B1: Sul1 (enzyme, UniProt P0C002 1-269, looked up)
chain: MVTVFGILNLTEDSFFDESRRLDPAGAVTAAIEMLRVGSDVVDVGPAASHPDARPVSPADEIRRIAPLLDALSDQMHRVSIDSFQPETQRYALKRGVGYLNDIQGFPDPALYPDIAEADCRLVVMHSAQRDGIATRTGHLRPEDALDEIVRFFEARVSALRRSGVAADRLILDPGMGFFLSPAPETSLHVLSNLQKLKSALGLPLLVSVSRKSFLGATVGLPVKDLGPASLAAELHAIGNGADYVRTHAPGDLRSAITFSETLAKFRSR
Consider B1, for which the binding result is “binds”.
